Values quoted from earlier work, collected in PMC4277939.

Biological target: EAG channel PAS domain PAS domain (Mus musculus) (UniProt Q60603)

Kd: 10 µM
Substance: EAG channel CNBh domain CNBh domain (from UniProt Q60603)
